The record followed here is patent US20160009793A1 (BIOARCTIC NEUROSCIENCE, published 2016).

The target of assay [1] is T1, Aβ1-42 protofibrils (UniProt P05067 672-713).
T1 construct: domain: Aβ1-42; Aβ numbering is not APP numbering; also called Aβ protofibrils; Aβ-protofibrils
The assay is described as follows: inhibition ELISA: antibody pre-incubated in solution with Aβ protofibrils, then transferred to Aβ coated plates; BAN2401 is the reference. The procedure: (§1) The binding characteristics towards Aβ protofibrils and Aβ monomers of the antibodies of the invention compared to BAN2401 were analyzed using an inhibition ELISA in which antibodies were pre-incubated in solution with Aβ protofibrils or Aβ monomers and then transferred to Aβ coated ELISA plates, as described in Tucker et. al. J Alzheimers Dis. 2015; 43(2):575-88. doi: 10.3233/JAD-140741. PubMed PMID: 25096615, and references cited therein.
(ELISA stands for enzyme-linked immunosorbent assay.)

Assay [2] deals with T1, Aβ1-42 protofibrils. The assay can be described thus: inhibition ELISA: antibody pre-incubated in solution with Aβ protofibrils, then transferred to Aβ coated plates. The method, then: as §1
In assay [3] the target is T2, Aβ1-40 monomers (UniProt P05067 672-711).
T2 construct: domain: Aβ1-40; Aβ numbering is not APP numbering; also called Aβ monomers; Aβ monomer
T2 sequence (P05067 672-711 limits assumed): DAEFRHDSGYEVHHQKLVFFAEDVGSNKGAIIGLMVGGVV
The assay can be described thus: inhibition ELISA: antibody pre-incubated in solution with Aβ monomers, then transferred to Aβ coated plates. The procedure: as §1

Where a chain is given by its changes, count along the chain named. Numbers in names are those of the source.

T1 sequence (P05067 672-713 limits assumed): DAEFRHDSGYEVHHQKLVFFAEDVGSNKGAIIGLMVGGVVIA

B1: BAN2401 (antibody, V domains shown)
VH: EVQLVESGGGLVQPGGSLRLSCSASGFTFSSFGMHWVRQAPGKGLEWVAYISSGSSTIYYGDTVKGRFTISRDNAKNSLFLQMSSLRAEDTAVYYCAREGGYYYGRSYYTMDYWGQGTTVTVSS
VL: DVVMTQSPLSLPVTPGAPASISCRSSQSIVHSNGNTYLEWYLQKPGQSPKLLIYKVSNRFSGVPDRFSGSGSGTDFTLRISRVEAEDVGIYYCFQGSHVPPTFGPGTKLEIK
notes: also called humanized version of mAb158
For B1, in assay [1], the binding result was “binds”.

B2: A17D/R79T (antibody, human IgG1, kappa, V domains shown)
VH: B1 VH
VL: DVVMTQSPLSLPVTPGDPASISCRSSQSIVHSNGNTYLEWYLQKPGQSPKLLIYKVSNRFSGVPDRFSGSGSGTDFTLTISRVEAEDVGIYYCFQGSHVPPTFGPGTKLEIKR
Regarding B2, the binding result in assay [2] and in assay [3] was “binds” throughout.

B3: A17D/R79T_DI 3 (antibody, human IgG1, kappa)
heavy: not shown
light: DVVMTQSPLSLPATPGDPASISCRSSQSIVHSNGNTYLEWYLQKPGQSPKLLIYKVSNRFSGVPDRFSGSGSGTDFTLTIQRVEAEDVGIYYCFQGSHVPPTFGPGTKLEIKRTVAAPSVFIFPPSDEQLKSGTASVVCLLNNFYPREAKVQWKVDNALQSGNSQESVTEQDSKDSTYSLSSTLTLSKADYEKHKVYACEVTHQGLSSPVTKSFNRGEC
notes: also called deimmunized variant 3 of A17D/R79T
Turning to B3, the binding result in assay [2] and in assay [3] was “binds” in each case.

B4: A17D/R79T_DI 5 (antibody, human IgG1, kappa)
heavy: not shown
light: B3 light with A13V, I21V
notes: also called deimmunized variant 5 of A17D/R79T
With B4, the binding result in assay [2] and in assay [3] was “binds” each time.

B5: A17D/R79T/R82S (antibody, human IgG1, kappa, V domains shown)
VH: B1 VH
VL: B2 VL with R82S
Consider B5, for which the binding result in assay [2] and in assay [3] was “binds” each time.

B6: A17D (antibody, human IgG1, kappa, V domains shown)
VH: B1 VH
VL: B2 VL with T79R
Take B6: the binding result in assay [2] and in assay [3] was “binds” in each case.

B7: A17D/R79T_DI 7 (antibody, human IgG1, kappa)
heavy: not shown
light: B3 light
notes: also called deimmunized variant 7 of A17D/R79T
As for B7, the binding result in assay [2] and in assay [3] was “binds” each time.

B8: A17D/R82S (antibody, human IgG1, kappa, V domains shown)
VH: B1 VH
VL: B2 VL with T79R, R82S
For B8, the binding result in assay [2] and in assay [3] was “binds” each time.

B9: A17D/R79T_DI 6 (antibody, human IgG1, kappa)
heavy: not shown
light: B3 light with A13V, I21V, Q81S, E84D
notes: also called deimmunized variant 6 of A17D/R79T
In the case of B9, the binding result in assay [2] and in assay [3] was “binds” throughout.

B10: A17D/R79T_DI 1 (antibody, human IgG1, kappa)
heavy: not shown
light: B3 light with A13V, I21V
notes: also called deimmunized variant 1 of A17D/R79T
For the molecule B10, the binding result in assay [2] and in assay [3] was “binds” throughout.

B11: A17D/R79T_DI 8 (antibody, human IgG1, kappa)
heavy: not shown
light: B3 light with Q81S, E84D
notes: also called deimmunized variant 8 of A17D/R79T
On to B11, for which the binding result in assay [2] and in assay [3] was “binds” throughout.

B12: A17D/R79T_DI 4 (antibody, human IgG1, kappa)
heavy: not shown
light: B3 light with Q81S, E84D
notes: also called deimmunized variant 4 of A17D/R79T
Regarding B12, the binding result in assay [2] and in assay [3] was “binds” in each case.

B13: A17D/R79T_DI 2 (antibody, human IgG1, kappa)
heavy: not shown
light: B3 light with A13V, I21V, Q81S, E84D
notes: also called deimmunized variant 2 of A17D/R79T
As for B13, the binding result in assay [2] and in assay [3] was “binds” in each case.
